B1: 18R5: anti-FZD IgG2 antibody binding FZD1, FZD2, FZD5, FZD7, FZD8; heavy chain SEQ ID NO:11, light chain SEQ ID NO:12 (antibody)
heavy: EVQLVESGGGLVQPGGSLRLSCAASGFTFSHYTLSWVRQAPGKGLEWVSVISGDGSYTYYADSVKGRFTISSDNSKNTLYLQMNSLRAEDTAVYYCARNFIKYVFANWGQGTLVTVSSASTKGPSVFPLAPCSRSTSESTAALGCLVKDYFPEPVTVSWNSGALTSGVHTFPAVLQSSGLYSLSSVVTVPSSNFGTQTYTCNVDHKPSNTKVDKTVERKCCVECPPCPAPPVAGPSVFLFPPKPKDTLMISRTPEVTCVVVDVSHEDPEVQFNWYVDGVEVHNAKTKPREEQFNSTFRVVSVLTVVHQDWLNGKEYKCKVSNKGLPAPIEKTISKTKGQPREPQVYTLPPSREEMTKNQVSLTCLVKGFYPSDIAVEWESNGQPENNYKTTPPMLDSDGSFFLYSKLTVDKSRWQQGNVFSCSVMHEALHNHYTQKSLSLSPGK
light: DIELTQPPSVSVAPGQTARISCSGDNIGSFYVHWYQQKPGQAPVLVIYDKSNRPSGIPERFSGSNSGNTATLTISGTQAEDEADYYCQSYANTLSLVFGGGTKLTVLGQPKAAPSVTLFPPSSEELQANKATLVCLISDFYPGAVTVAWKADSSPVKAGVETTTPSKQSNNKYAASSYLSLTPEQWKSHRSYSCQVTHEGSTVEKTVAPTECS
modifications: Heavy chain amino acid sequence without predicted signal sequence; Light chain amino acid sequence without predicted signal sequence

How the values were obtained:
B16F10 target cells = experiment: T cell cytotoxicity, calcein release from B16F10 target cells; format: in vivo, mouse; settings: splenocytes of treated B16F10 tumor-bearing mice, cultured 6 days with mgp100 peptide; effector:target 25:1; vs Hamster IgG; FIG. 2B
Description: To measure changes in T cell toxicity, the mouse melanoma cell line B16F10 was cultured in DMEM culture medium supplemented with 10% (v/v) fetal bovine serum (FBS), 2 mM L-glutamine, and 100 U/mL penicillin at 37° C. in a humidified atmosphere of 5% CO2. Total splenocytes from were cultured for 6 days in RPMI 1640 medium supplemented with 10% FBS, 2 mM L-glutamine, 100 U/mL penicillin, and 1 μg/mL mgp100 peptide (Anaspec). B16F10 target cells were labeled with 10 μM calcein AM (Life Technologies) for 1 hour at 37° C. and then combined with the splenocytes at an effector:target ratio of 25:1. Following a four-hour incubation at 37° C., cell-free supernatants were harvested and calcein release was quantified on a fluorometer at an excitation of 485 nm and an emission of 535 nm. The percentage of specific cell lysis was determined as: % lysis=100×(ER-SR)/(MR-SR), where ER, SR, and MR represent experimental, spontaneous, and maximum calcein release, respectively. Spontaneous release is the fluorescence emitted by target cells incubated in media alone (i.e., in the absence of effector cells), while maximum release is determined by lysing target cells with an equal volume of 10% SDS. For all groups, p<0.05 vs. Hamster IgG.

B16F10 melanoma = B16F10 melanoma tumor growth in mice; format: in vivo; settings: B16F10 melanoma in C57b16/J mice; vs control antibody (Hamster IgG); 18R5 45 mg/kg Q2W, 54F28 50 mg/kg Q2W, anti-CTLA-4 (4F10-11) 10 mg/kg 3QW; n=10
Description: B16F10 melanoma cells were implanted into the rear flanks of C57b16/J mice. When tumors reached a mean tumor volume of ˜100 mm^3 as measured by electronic caliper, mice were grouped and treated with a control antibody (Hamster IgG, 10 mg/kg, 3QW), 18R5 (45 mg/kg, Q2W), anti-CTLA-4 (4F10-11, 10 mg/kg, 3QW), 54F28 (50 mg/kg, Q2W), or a combination of 18R5+ anti-CTLA-4 or 54F28+ anti-CTLA-4. […] Data shown represents the mean ±SEM (n=10).

B16F1 tumors = experiment: T-cell tumor infiltration by flow cytometry (FACS); format: in vivo, mice; settings: compared to anti-CTLA-4 + anti-PD-L1 without 18R5 (or control antibodies)
Description: The change is T-cell tumor infiltration was also measured. Here, B16F1 tumors were isolated from control antibody, anti-CTLA-4 and anti-mouse PD-L1 combination; and anti-mouse Fzd7 (18R5)+anti-mouse anti-CTLA-4+ anti-mouse PD-L1 combination antibody-treated mice. Single cell suspensions were acquired from 4-6 independently treated tumors and were stained for tumor infiltrating immune cells using fluorescently-labeled anti-CD45, anti-CD4, and anti-CD8 antibodies. Flow cytometry analysis (FACS) was performed and the relative percentage populations of CD45+/CD4+ and CD45+/CD8+ T cells are shown.

splenocytes = experiment: ELISpot cytokine secretion assay of splenocytes (hgp100 peptide); format: in vivo, mice; settings: splenocytes with 1 μg/ml hgp100 peptide, 18R5 added to anti-CTLA-4 + anti-PD-L1 therapy
Description: Using the ELISpot cytokine secretion assay, secretion of IFN-gamma and IL-2 was measured following 18R5 treatment. In these assays, splenocytes were harvested from a minimum of four mice per group, filtered, and the red blood cells lysed and re-suspended in RPMI+10% FBS+penn/strep at a concentration of 10^6 cells/ml in the presence of 1 μg/ml hgp100 peptide. Cells were plated on pre-coated ELISpot plates, incubated overnight and processed according to manufacturer's instructions (MabTech, Cincinnati, Ohio). Developed plates were read on a BioSys BioReader 6000-F b. The results from this assay are shown in FIG. 4A (IFN-gamma) and FIG. 4B (IL-2). Values shown are total optical density. As shown in these figures, IFN-gamma and IL-2 were increased by addition of 18R5 therapy.

B16F1 melanoma cells = experiment: B16F1 melanoma tumor growth with GVAX, anti-CTLA-4 and anti-PD-L1; format: in vivo; settings: C57BL6J mice, murine chimera 18R5 added to anti-CTLA-4 (9D9) + anti-PD-L1 (10F.9G2), compared to these antibodies without 18R5, FIGS. 3A-3D
Description: The effect of the anti-Fzd antibody, OMP-18R5, on melanoma cell line tumor growth was tested animals receiving the combination of anti-CTLA-4 and anti-PD-L1 antibodies. In these experiments, ten thousand B16F1 melanoma cells were injected subcutaneously into C57BL6J mice. On days 4, 7, and 10 post-implantation, “GVAX” tumor vaccine was administered by the injection of 2 million mitomycin C-treated cells of a B16F1 subclone stably transfected with a plasmid encoding m-GM-CSF (with GM-CSF expression confirmed by ELISA), as previously described by Curran and Allison, Cancer Res 69:7747, 2009. Anti-CTLA-4 clone 9D9 (BioXCell; West Lebanon, N.H.) was dosed on days 5, 8, and 12. Anti-PD-L1 clone 10F.9G2 (BioXCell) was dosed on days 5, 8, 12, 14, 19, 22, and 26, and either 1B7.11 isotype or murine chimera 18R5 were administered days 5, 12, 19, and 26 following parental B16F1 cell implantation.

Row | Molecule | T cell cytotoxicity (specific cell lysis) (B16F10 target cells) | anti-tumor growth vs control (B16F10 melanoma) | CD4+ T cell tumor infiltration (CD45+/CD4+) (B16F1 tumors; FIG. 6A) | CD8+ T cell tumor infiltration (CD45+/CD8+) (B16F1 tumors; FIG. 6B) | IFN-gamma secretion (ELISpot, total optical density) (splenocytes; FIG. 4A) | IL-2 secretion (ELISpot, total optical density) (splenocytes; FIG. 4B) | tumor growth (B16F1 melanoma cells)
1 | 54F28: FZD8-Fc soluble receptor, SEQ ID NO:41 (SEQ ID NO:45 with signal sequence) | increased | significant anti-tumor growth | – | – | – | – | –
2 | B1 | increased | – | increased | increased | increased | increased | decreased
